The nature of the data set: protein stability index of a GFP-peptide fusion (GPS, HEK-293T) (PSI 1-6); higher = more stable. Particulars: c terminus: native.
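Further: lentivirally expressed fusion library, cells FACS-sorted into six equal-sized GFP/DsRed ratio bins, PSI computed from sequencing read fractions per bin weighted by bin number.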

B1: TRPA1 addR (peptide)
chain: EQRNSRWNTVLRAVKAKTHHLEPR
Regarding B1, the protein stability index (parent: NP_015628.1) came to 4.5.

B2: BEX2 addR (peptide)
chain: HSLRAVSTDPPHHDHHDEFCLMPR
Take B2: the protein stability index (parent: NP_116010.1) came to 4.61.

B3: POLD2 addR (peptide)
chain: CQPISFSGFGAEDDDLGGLGLGPR
B3: the protein stability index (parent: NP_006221.1) was 4.36.

B4: SNF8 addR (peptide)
chain: LPALFTDLYSQEITAEEAREALPR
On to B4, for which the protein stability index (parent: NP_009172.2) was 3.55.

For the origin of these results see the supplement of paper PMC10567573.
